Results reported in IntAct's records for PubMed 15883825.

B1: F-box protein MET30 (Saccharomyces cerevisiae), P39014 (parent)
chain: MRRERQRMMSFEDKDKDDLDNSNSNNSSEMTDTAMMPPLKRLLITGSSDDLAQGSSGKKKMTMATRSPSSSPDLATNDSGTRVQPLPEYNFTKFCYRHNPDIQFSPTHTACYKQDLKRTQEINANIAKLPLQEQSDIHHIISKYSNSNDKIRKLILDGILSTSCFPQLSYISSLVTHMIKIDFISILPQELSLKILSYLDCQSLCNATRVCRKWQKLADDDRVWYHMCEQHIDRKCPNCGWGLPLLHMKRARIQQNSTGSSSNADIQTQTTRPWKVIYRERFKVESNWRKGHCRIQEFKGHMDGVLTLQFNYRLLFTGSYDSTIGIWDLFTGKLIRRLSGHSDGVKTLYFDDRKLITGSLDKTIRVWNYITGECISTYRGHSDSVLSVDSYQKVIVSGSADKTVKVWHVESRTCYTLRGHTEWVNCVKLHPKSFSCFSCSDDTTIRMWDIRTNSCLKVFRGHVGQVQKIIPLTIKDVENLATDNTSDGSSPQDDPTMTDGADESDTPSNEQETVLDENIPYPTHLLSCGLDNTIKLWDVKTGKCIRTQFGHVEGVWDIAADNFRIISGSHDGSIKVWDLQSGKCMHTFNGRRLQRETQHTQTQSLGDKVAPIACVCIGDSECFSGDEFGCVKMYKFDLND
partner: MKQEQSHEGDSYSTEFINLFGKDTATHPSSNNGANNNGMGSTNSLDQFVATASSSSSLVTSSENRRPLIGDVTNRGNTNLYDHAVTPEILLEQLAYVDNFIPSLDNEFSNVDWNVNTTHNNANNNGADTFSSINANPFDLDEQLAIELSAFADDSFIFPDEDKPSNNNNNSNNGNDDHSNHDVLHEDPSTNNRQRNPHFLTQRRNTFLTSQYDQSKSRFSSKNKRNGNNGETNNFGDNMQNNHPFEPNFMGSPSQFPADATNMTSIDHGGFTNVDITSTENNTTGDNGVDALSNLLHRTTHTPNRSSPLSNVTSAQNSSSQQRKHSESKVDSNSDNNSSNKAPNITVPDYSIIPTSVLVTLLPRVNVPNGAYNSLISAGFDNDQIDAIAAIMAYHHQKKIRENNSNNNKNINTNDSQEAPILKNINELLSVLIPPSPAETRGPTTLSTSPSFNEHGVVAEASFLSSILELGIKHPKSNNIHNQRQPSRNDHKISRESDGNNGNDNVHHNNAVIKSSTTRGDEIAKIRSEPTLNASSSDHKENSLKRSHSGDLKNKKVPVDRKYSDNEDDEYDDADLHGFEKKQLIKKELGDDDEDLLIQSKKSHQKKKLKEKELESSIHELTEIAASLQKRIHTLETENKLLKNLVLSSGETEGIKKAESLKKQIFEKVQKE

Variants of: B1
Conditions: with met4_yeast MET4, P32389

Row | Variant | effect of a mutation on the interaction
1 | L386D;N425A;Q467A;L530D | decreasing interaction
